Target: bovine lactoferrin (Lf) (bovine)
Test: […]; 20 mM HEPES pH 7.4, 150 mM NaCl

“C-terminal α-helical domain (CaHD) of Moraxella bovis LbpB (domain or fragment)” was tested, and the stoichiometry N was 1.

Reference: PMC11022072
